Source: the DeepSol protein solubility set

experiment: soluble on expression in E. coli; label from the status in PepcDB or PDB records

Row | Sequence | soluble on expression in E. coli
1 | MKVGIIGASGYTGSELLRILANHPEAEVIAASSRRYEGQKIWKVHRFLKGFYDLEFCSPELSNFGDCDLVFTAVPHGEAMKYVPQLLDSGIKVVDISADYRLDKETYERVYGKKHEGYVEAVYGLTELHREEIKKANLVANPGCYPTGTILAASPLAKLELIERVVFDCKSGITGAGESPSAFTHYPNLHESIVPYKITEHRHYYEMVQELGRFQSDIKISFTPQVYPGSRGILTNAHVFLRGELTREELYRIYEEFYEDSFFVRIQESVSLSQVRGSNFCDISIHPGEDRVVVVSAIDNLVKGASGQAVQNMNLMMGFDETLGLRTPPLFP | not soluble
2 | SDRSAEFRKWKAQCLSKADLSRKGSVDEDVVELVQFLNMRDQFFTTSSCAGRILLLDRGINGFEVQKQNCCWLLVTHKLCVKDDVIVALKKANGDATLKFEPFVLHVQCRQLQDAQILHSMAIDSGFRNSGITVGKRGKTMLVVRSTHGLEVPLSHKGKLMVTEEYIDFLLNVANQKMEENKKRIERFYNCLQHALERETMTNLHPKIKEKNNSSYIHKKKRNPEKTRAQCITKESDEELENDDDDDLGINVTIFPEDY | soluble
3 | MGSDKIHHHHHHMHHSHHLEIYEKLREKLDKAPVGLPKTVSGVEKEILSVLFDEEEAKIAVHMPFIRFTAEQLAERTGKSLEYVEKILNEMAKKGTVWKGEKDGKTYYRLFPVIVGFAEMPFLAGPGRDARQEKLAPLWAKYRKEGFLDELGDREHAILRALPEKSTISKQSVILPYEDAEKLVRDRDYHAVGYCPCRIMARLIGEGCRHSLEVCLHFGSLGKYMVEHGYARRITADEAVEILRKSNREGLVHVTERSKGPISTICNCCSDCCAFFRAIHEAGHPKTIAHSSYVASVDSSKCIACGICMLRCPMKAVKAKINREPANVEAEKCLGCGVCVPTCPVEAIELVEREELQEWPDHLTYYQELLADRGKDPAGLF | not soluble
4 | GSGMEQFPKETVVESSGPKVLETAEEIQERRQEVLTRYQSFKERVAERGQKLEDSYHLQVFKRDADDLGKWIMEKVNILTDKSYEDPTNIQGKYQKHQSLEAEVQTKSRLMSELEKTREERFTMGHSAHEETKAHIEELRHLWDLLLELTLEKGDQLLRAL | soluble
5 | MGHHHHHHSHVFDRPDLGDQAILVSLDFGDADYQESVAECAELVRGSKVEILGMVQGKRQRPDAALFAGKGKVEEIASMVRATGANVVIFNHALSPGQERNLERALQCRVIDRNSLILDIFAQRARSHEGKLQVELAQLSHLSTRLVRGWTHLERQKGGVGLRGPGETQLETDRRLLGIRVKALKDRLAQVQKQRNTQRRSRNRAGVSSVSIVGYTNAGKSTLFNALTKANIYAADQLFATLDTTSRKLFLNHDCSVVLSDTVGFIRDLPHTLVAAFRATLEETVQANLLLHVVDCANETRDAQIDEVNKVLAEIDADGIPQLIVWNKGDLRELPPEIERDEDGVAVAVRVSALKGEGLELLREAIAERVQPFANNHKEPYEHVAE | soluble
6 | MGSDKIHHHHHHAACQGKPLPNTAMHSDAPTEWSFNFFTPKALPAVVTFAAILDVDGNDYRFNTLNSTPDLPGVIGEWNDKDRAPVGYWNHVKRPPRHIIFCWDSIIDKKVYETHLTIPKSVLEQMLMPSKYKDYRGRIAWYNRMQIGLAPEGKVAVWLQGSGSESNYRVTPSVLKTVSGNKLDICKDITRSDFSYGYDKDIIDFIKGKHYPYGNW | not soluble
7 | MDQKGILRFHEELASLVLKMRSKGIDDVRFFTALEKIPRQQFVSSPWFKSAYDNKVIPIECGEYIERLEEQLLILYALSLKKKHRVLEIGTGSGFCTAFMACLSDRVITVDRYKTLVDLARQKFQTLGIENIVVRQIDGSRIITGFGSFDRILIWPSRSDEPKEFLELLTENGILIQAIGPDEGVQTITRYTKIASRFECLEMFQVRYQPFIEGIAETL | not soluble
8 | MSLERTTHQSLNGSWQFQPVAATLHVTPQLQAPAGGWKKINVPDNWYRQGHDISGYAWYQTRFALDAHNASRVAHLVFHGVDYSADVWLNDRYLGHHTGYFQPFEFDVTGLVKPGENQLRVLVNSPLEQPQDWSLHKRLVKGIFSHHDTRPGGAWSERGQEKNTGGIWAPVELQFADRAAVRQLQVTPRKQATEANPQQWVVSTEADIHHDVSHETSVTVEARILPENFKGASFAFKQSQTLQPGGNHIAFSFPVDNPALWWPYEYGHPNLYRLELSVKDASGKLLDQREQVFGVREVKVDDGLQWFINGRRMFLRGTNYIASQWLAEMTPDRYRRDLEMMQAAHINAVRVHAHVTGQDFYELCDRMGILVTQDFPLLWGYSDDPDFIAEARRQAKDMVQLLQRHPSIISWTMHNEPPWDSPWMAQKYPDYHPDINRRLDALLYEDVSKLDTLRVVRKESATKEHEWMGWYFDHWLAFSRPAPTPWSTEFGAQALPNLKSLERMFSKALLWPDTEAKWQVWEYHNFQRKETFEFAGVKQGGNIEEFIANSQHYQARLIQFAVENYRRQRYAPVSAVFQFMFVENWPSINWGIVDYWREPKAGYEALRVAYQPVLPSLEWKEGHHHHHH | not soluble
9 | MKVGIVLGTKPSNPLEFWVGVEKGKFLQLDDVVVVNSKIDGTNEEIKFYGIVQEVIKYLEGVELVYDAQLVNSGVVPANLAYMARVSVTRIEPEVFIPPTPGDYVFKAEGIDFEKALYYDNMKRKIPAGLTRNGEVVYLNYDFINGREGAHISISGMSGVATKTSYALFLLYSIFQKADDRTKIHGIIFNVKGKDLLWIDKKNKRFTKEHREAFEKLGLPPEPFKNVAFWAPPEQEWSEIPSSGERLEGVFPYKWSMKDFAQEGLLRFLFAEGDEGATSLHYVIDRVSEKLQQLAKESPGDVLLDENGQEINSLGDLLKLLHEVIEDRETKRDPDRYREWFGTAATATAYAFLRRFHHAASHCKHLVHGNKSRHIDWRSHQLNVIDISDLHGIAKMFVVGSILKKIFREKEETGNPYPKIFVVLDELNKYAPKDKWSPIKEILLDIAERGRSLGVILIGAQQTASEIEKRIVANAAVKVTGRLDSSEVLSKEYEFLTGNFRQRAIMLKKGTMILYQPDIPNPVMIKFPLAPWATKKEEVEEEVSAPKEFDQF | soluble
10 | MHHHHHHSSGVDLGTENLYFQSMKLIRVENFEAYFKKQQADSNCGFAEEYEDLKLVGISQPKYAAELAENRGKNRYNNVLPYDISRVKLSVQTHSTDDYINANYMPGYHSKKDFIATQGPLPNTLKDFWRMVWEKNVYAIIMLTKCVEQGRTKCEEYWPSKQAQDYGDITVAMTSEIVLPEWTIRDFTVKNIQTSESHPLRQFHFTSAPDHGVPDTTDLLINFRYLVRDYMKQSPPESPILVHCSAGVGRTGTFIAIDRLIYQIENENTVDVYGIVYDLRMHRPLMVQTEDQYVFLNQCVLDIVRSQKDSKVDLIY | soluble
11 | MAWVVNKQSTQEELANRFRALVEANEILQIPGAHDAMAALVARNTGFLALYLSGAAYTASKGLPDLGIVTSTEVAERARDLVRATDLPVLVDIDTGFGGVLNVARTAVEMVEAKVAAVQIEDQQLPKKCGHLNGKKLVTTEELVQKIKAIKEVAPSLYIVARTDARGVEGLDEAIERANAYVKAGADAIFPEALQSEEEFRLFNSKVNAPLLANMTEFGKTPYYSAEEFANMGFQMVIYPVTSLRVAAKAYENVFTLIKETGSQKDALSNMQTRSELYETISYHDFEELDTGIAKTVLSEDQ | not soluble
12 | MKYFQEADIAVTVCDKTGKIIDMNEQSRQVNLKPGQELIGSNVLDCHPEPARSMLEEMMRQERKHVYTIEKNGRKKLIYQIPWYEKGEYMGFLELSMVIPFEMEHKIRTPKPAND | not soluble
13 | MSLTADVDYPLLAKMRSASRRALTSLVDWFGTMAQDLDHQGLTTLAGELVSVARLLDREAVVTRYLTVPAEDATPRIRLIERLVSGKVGAPTLEVLRTAVSKRWSANSDLIDAIEHVSRQALLELAERAGQVDEVEDQLFRFSRILDVQPRLAILLGDCAVPAEGRVRLLRKVLERADSTVNPVVVALLSHTVELLRGQAVEEAVLFLAEVAVARRGEIVAQVGAAAELSDAQRTRLTEVLSRIYGHPVTVQLHIDAALLGGLSIAVGDEVIDGTLSSRLAAAEARLPDEGHHHHHH | soluble
14 | HRSGGFPVYKNTKVTYFPNGQSKFEEMKKQLLKAEKFIFLEYFIIAEGLMWGEILSILEQKVQEGVEVRVMYDGMLELSTLSFDYAKRLEKIGIKAKVFSPITPFVSTYYNYRDHRKILVIDNKVAFNGGINLADEYINQIERFGYWKDTAVMLEGEGVASFTLMFLQMWSTTNKDYEFAPYLTQNFHEIVANGYVIPYSDSPLDHEKVGENV | not soluble
15 | MEIIGGKEVSPHSRPFMASIQYGGHHVCGGVLIDPQWVLTAAHCQYRFTKGQSPTVVLGAHSLSKNEASKQTLEIKKFIPFSRVTSDPQSNDIMLVKLQTAAKLNKHVKMLHIRSKTSLRSGTKCKVTGWGATDPDSLRPSDTLREVTVTVLSRKLCNSQSYYNGDPFITKDMVCAGDAKGQKDSCKGDAGGPLICKGVFHAIVSGGHECGVATKPGIYTLLTKKYQTWIKSNLVPPHTN | soluble
16 | MSKGHSLQDPYLNTLRKERVPVSIYLVNGIKLQGQIESFDQFVILLKNTVSQMVYKHAISTVVPSRPVRLPSGDQPAEPGNA | soluble
17 | MSLSEVSLRPAKISTVLPGSLGEEMGFEPGDAIVRINGQAPRDLIDYQFLCADDYLELDVLDSQGELHELAVEKEFDQDLGLGFETALFDGLIQCNNRCPFCFIDQQPPGKRESLYYKDDDYRLSFLYGSYLTLTNLSAKEWQRIEQLRLSPLYVSIHATEASVRERLLKNHRAGQILDQLAWFQARRLQIHAQVVVCPGVNDGKHLEQTLRDLAQFHQGETPAVISVAVVPVGLTRFRPQEDELSPVGQAKATEVIAQVQALQKEFAQQLGGNFVWLADEWFLIARQPLPPESHYEDYPQIGNGVGSIRQFIKEFQQQAAEFLPPAIAEAKTLTWVVGNAVEQAFELLVEQLNQVKGLTVNLAPLNSDYWGQEITVTGLLTGQDLIAKLAGRDLGDGILLPALMLKHDDTRFLDDLRVADVAQKLGTTIYPVADVASLLEHCVQPMAVSREGHHHHHH | soluble
18 | MGSDKIHHHHHHMTTNCVIVSQRYPPEKGGNASRIHDTAVNLGDEFNVTVLAPSLCYPPGNFERTWKRKQTERDEGVIVHRLWTWQPQRENPSLLRRLPYYVIFALHAALWLVVNFRQYDVVMTSTPPITTGFPGLVAAAIGNPWVIDVRDLWIENSIALGYIQADSPLVKAGRTFQRLALHSADRITVTTETLRDAVGDTYGSELRDRVRVVPNGVDTDRFSSVSTPENNDSRIVYTGNIGSAQALEPCIRAMQHVSSDNALLQLVGDGDEVSRLKSVTERLGLEDRVEFVGLVDRERIPEILDSATVGLAPIKDSPELDYAIPTKLYEYMACSLPVVVTGRGEIKRFTTDTDVGIHTEPDPESIAVAIETLLENPEKRVAMGQDGHRVVSEEYDRQAIAGQLGEVFRTLTVTERRESCTTPDPDHD | not soluble
19 | MKRFARKETIYLRGEEARTLYRLEEGLVRVVELLPDGRLITLRHVLPGDYFGEEALEGKAYRYTAEAMTEAVVQGLEPRAMDHEALHRVARNLARQMRRVQAYEAHLQTGELRARIARYLLFLADTPLSARDRQGIYVTVSHEEIADATASIRESVSKVLADLRREGLIATAYRRVYLLDLAALEREAGSALEAA | soluble
20 | NVSVLNFGNTPVSFRQDGFLNATAIASHFGKLPKDYLKSEQTQQYISALAENLSVRRKILTEANQIVIVKRGGSEQGTWLHPKLAIHFARWLNPKFAVWCDEQIEILLNGKISDGI | soluble
21 | DSLKAEVNTLFARFDEQPLAAASIAQVHTAALFDGREVIVKVTRPNIRTQILQDFEIISWLGQSLESRLEAARALHLSEIIQDYRQIILNELDLTLEADNTRRMRHYFTGSSMMYVPEVY | not soluble
